B1: T06 (structured_RNA)
RNA: GAGGAUGGCAGCGGAGAGGAAUGGUGUAGUGUAAGUCAAUUCUACUUUCGUUGCAGCCCACACCACUCUCC

Target: T7 RNA polymerase (UniProt P00573 1-883)
Experiment: filter binding

Chain of T7 RNA polymerase (P00573 whole entry): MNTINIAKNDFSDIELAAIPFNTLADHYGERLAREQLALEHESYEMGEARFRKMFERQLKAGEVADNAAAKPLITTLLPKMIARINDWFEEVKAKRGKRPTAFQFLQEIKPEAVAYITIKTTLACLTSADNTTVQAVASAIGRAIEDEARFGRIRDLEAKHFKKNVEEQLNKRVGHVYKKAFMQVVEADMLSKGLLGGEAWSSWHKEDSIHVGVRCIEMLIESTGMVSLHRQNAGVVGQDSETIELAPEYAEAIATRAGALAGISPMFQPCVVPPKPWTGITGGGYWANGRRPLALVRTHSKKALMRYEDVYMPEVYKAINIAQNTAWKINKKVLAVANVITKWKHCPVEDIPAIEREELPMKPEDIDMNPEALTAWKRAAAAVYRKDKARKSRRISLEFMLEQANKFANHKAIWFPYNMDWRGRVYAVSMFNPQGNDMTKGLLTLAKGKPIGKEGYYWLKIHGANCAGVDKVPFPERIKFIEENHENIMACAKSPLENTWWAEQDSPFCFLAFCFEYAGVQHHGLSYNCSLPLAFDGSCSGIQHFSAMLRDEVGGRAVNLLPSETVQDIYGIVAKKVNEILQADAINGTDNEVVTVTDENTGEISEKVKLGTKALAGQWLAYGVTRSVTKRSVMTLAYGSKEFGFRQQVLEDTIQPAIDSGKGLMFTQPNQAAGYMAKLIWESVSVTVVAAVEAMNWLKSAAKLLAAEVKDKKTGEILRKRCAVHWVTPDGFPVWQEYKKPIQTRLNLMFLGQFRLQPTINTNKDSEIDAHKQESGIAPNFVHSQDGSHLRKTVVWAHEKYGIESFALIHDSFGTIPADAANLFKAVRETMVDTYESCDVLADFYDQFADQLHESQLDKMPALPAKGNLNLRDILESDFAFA

**Q.** For B1, which Kd is on record?
**A.** Its Kd is 8 ± 2.4 nM.

**Q.** Which Kd does the source give for GUGUAGUGUAAGUCAAUUCUACUUUCGUUGCAGCCCAC (structured_RNA) [T06-38] here?
**A.** Its Kd is 10.5 ± 2.1 nM.

**Q.** With GCGUAAGUCAAUUCCACUAUCAUUGCUGC (structured_RNA) [T230-29] as the binder, how does the Kd read?
**A.** The Kd was 2.9 ± 0.9 nM.
